One assay deals with T1, CD3 on Jurkat cells (UniProt P07766 23-207).
T1 construct: whole, on cells; Whole CD3 complex on cells; also called CD3-expressing Jurkat cells; Jurkat cells expressing CD3
The assay can be described thus: flow cytometry, Jurkat cells expressing CD3, gMFI. A general note: Flow cytometry measures light scatter and fluorescence of single cells or particles in a stream.

For assay [1], the target named is T2, recombinant Siglec-15 (bispecific antibody affinity assay) (Homo sapiens (Human), UniProt Q6ZMC9 20-263, limits assumed).
T2 sequence: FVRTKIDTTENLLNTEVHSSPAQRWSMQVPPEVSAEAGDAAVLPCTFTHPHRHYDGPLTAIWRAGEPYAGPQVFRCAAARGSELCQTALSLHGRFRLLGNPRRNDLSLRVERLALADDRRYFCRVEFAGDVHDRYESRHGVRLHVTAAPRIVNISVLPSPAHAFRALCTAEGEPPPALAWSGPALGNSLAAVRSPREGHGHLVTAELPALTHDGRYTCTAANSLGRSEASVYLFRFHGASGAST
The assay can be described thus: antibody as ligand, human Siglec15 as analyte; legend paragraph 114 says BLI, methods paragraph 422 say Biacore SPR, table in RU. A general note: Surface plasmon resonance follows binding to a sensor surface in real time, without labels.

The next assay addresses recombinant CD3 (UniProt P07766 23-126; P09693 23-116). As to the kind of experiment: antibody as ligand, 'Human CD3 epsilon&CD3 gamma' as analyte; legend paragraph 116 says BLI, methods paragraph 422 say Biacore SPR, table in RU.
Assay [2] addresses T3, truncated human Siglec-15 comprising only domain 2 (D2), expressed on HEK293T cells (human, UniProt Q6ZMC9 168-251, limits assumed).
T3 construct: also called domain 2-only human Siglec-15; Siglec-15 Domain 2 (D2) HEK293T cells
T3 sequence: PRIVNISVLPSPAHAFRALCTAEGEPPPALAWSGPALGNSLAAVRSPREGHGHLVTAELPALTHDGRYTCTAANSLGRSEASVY
The assay can be described thus: flow cytometry on HEK293T cells expressing domain 2 only (FIG. 16).

In assay [3] the target is T4, mouse Siglec-15, full length, expressed on HEK293T cells (mouse).
T4 construct: also called mS15; HEK293T cells expressing mouse Siglec-15
T4 chain: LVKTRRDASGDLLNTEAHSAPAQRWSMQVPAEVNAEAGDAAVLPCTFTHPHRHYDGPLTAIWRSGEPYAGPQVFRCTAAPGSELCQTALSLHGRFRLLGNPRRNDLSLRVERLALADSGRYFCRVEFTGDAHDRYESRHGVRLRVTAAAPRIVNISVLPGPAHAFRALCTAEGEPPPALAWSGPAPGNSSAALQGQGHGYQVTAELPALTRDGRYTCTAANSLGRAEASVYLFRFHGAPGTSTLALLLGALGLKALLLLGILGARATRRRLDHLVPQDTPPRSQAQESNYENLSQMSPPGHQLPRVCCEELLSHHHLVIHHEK
As to the kind of experiment: IgG1 titration, flow cytometry on HEK293T cells expressing mouse Siglec-15.

The target in assay [4] is T5, human Siglec-15, full length, expressed on cells (human, UniProt Q6ZMC9 20-328).
T5 construct: also called hS15; MOLM-13 Siglec-15 expressing cells
T5 sequence: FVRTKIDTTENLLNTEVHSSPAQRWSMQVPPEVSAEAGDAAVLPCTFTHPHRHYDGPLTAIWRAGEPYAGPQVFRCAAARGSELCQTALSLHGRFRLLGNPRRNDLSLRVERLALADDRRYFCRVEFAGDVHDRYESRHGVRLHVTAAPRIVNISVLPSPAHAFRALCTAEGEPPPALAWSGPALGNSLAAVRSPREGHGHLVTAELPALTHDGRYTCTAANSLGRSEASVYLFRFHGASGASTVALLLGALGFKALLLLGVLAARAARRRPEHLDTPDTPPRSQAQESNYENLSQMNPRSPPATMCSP
As to the kind of experiment: IgG1 titration, flow cytometry on MOLM-13 human Siglec-15 cells.

The target in assay [5] is T6, recombinant human Siglec-15-his protein (Bonopusbio) (human, UniProt Q6ZMC9 20-263).
T6 construct: Bought (CW37-50 ug in the ELISA; the SPR paragraph prints CW70-50 ug); whole entry named; also called recombinant human Siglec-15 protein
T6 sequence: T2 sequence
The assay can be described thus: SPR (Biacore T200), antibody on CM5 chip, Siglec-15-his as analyte.

In assay [6] the target is T3, truncated human Siglec-15 comprising …. The assay can be described thus: flow cytometry on HEK 293T cells expressing only D2; compared to antibody clone A2A5C7E8.
Assay [7] concerns the target T5, human Siglec-15, full length, expressed …. The assay can be described thus: flow cytometry, HEK293T cells expressing human Siglec-15, anti-human IgG-PE, MFI.
For assay [8], the target named is T7, recombinant cynomolgus Siglec-15-his protein (Bonopusbio, CW70-50 ug) (cynomolgus monkey, UniProt Q6ZMC9 20-259 (human entry)).
T7 construct: whole entry named; also called cynomolgous Siglec-15
T7 chain: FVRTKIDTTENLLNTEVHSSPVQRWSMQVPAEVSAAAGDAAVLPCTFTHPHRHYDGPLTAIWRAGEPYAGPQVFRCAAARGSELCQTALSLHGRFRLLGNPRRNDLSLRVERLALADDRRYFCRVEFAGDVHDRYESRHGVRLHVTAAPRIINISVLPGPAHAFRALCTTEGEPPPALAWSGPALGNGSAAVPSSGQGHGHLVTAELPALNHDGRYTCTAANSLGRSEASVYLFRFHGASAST
The assay can be described thus: ELISA, plate coated with recombinant cynomolgus Siglec-15-his, antibody titrated up to about 200 nM, OD 450 nm. In general terms: An ELISA detects its analyte on a solid surface through an enzyme-linked reagent.

Assay [9] has as its target T6, recombinant human Siglec-15-his protein …. As to the kind of experiment: ELISA, plate coated with 100 ng per well recombinant human Siglec-15 (supplier not named in Example 3), HRP anti-mouse IgG, OD450.
For assay [10], the target named is T5, human Siglec-15, full length, expressed …. The assay can be described thus: flow cytometry, THP-1 cells overexpressing human Siglec-15, ADC titrated, anti-human IgG-PE, gMFI.
The target is the same in assay [11]. The description is as above. The source holds these as a separate data set.
The target is the same in assay [12]. Described as above. This is another data set of the same source.

Sequence of recombinant CD3 (P07766 23-126, form in doubt, chain 1 of 2): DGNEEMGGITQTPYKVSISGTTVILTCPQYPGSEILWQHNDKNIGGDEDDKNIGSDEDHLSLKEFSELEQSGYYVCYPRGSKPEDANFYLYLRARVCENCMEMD
Sequence of recombinant CD3 (P09693 23-116, form in doubt, chain 2 of 2): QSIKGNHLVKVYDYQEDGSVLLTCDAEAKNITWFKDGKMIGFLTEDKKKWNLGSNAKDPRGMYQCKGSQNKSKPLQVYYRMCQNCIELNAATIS
T1 sequence (P07766 23-207): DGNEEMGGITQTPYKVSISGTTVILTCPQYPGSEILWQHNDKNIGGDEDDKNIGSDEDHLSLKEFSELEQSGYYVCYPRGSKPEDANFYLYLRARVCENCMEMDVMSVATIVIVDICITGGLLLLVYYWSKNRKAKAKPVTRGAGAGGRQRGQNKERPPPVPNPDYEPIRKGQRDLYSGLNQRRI

B1: BsAb-1 (bispecific antibody, human IgG1, kappa, lambda, L234A L235A)
light 1: not shown
heavy 1: QVQLQQSGPELVKPGASVKISCKASGYAFSSSWMNWVKQRPGKGLEWIGRIYPGHGETNYNGKFKDKATVTADKSSSTTYMQLSSLTSEDSAVYFCARVDNSDPYYFDYWGQGTTLTVSSASTKGPSVFPLAPSSKSTSGGTAALGCLVKDYFPEPVTVSWNSGALTSGVHTFPAVLQSSGLYSLSSVVTVPSSSLGTQTYICNVNHKPSNTKVDKKVEPKSCDKTHTCPPCPAPEAAGGPSVFLFPPKPKDTLMISRTPEVTCVVVDVSHEDPEVKFNWYVDGVEVHNAKTKPREEQYNSTYRVVSVLTVLHQDWLNGKEYKCKVSNKALPAPIEKTISKAKGQPREPQVCTLPPSRDELTKNQVSLSCAVKGFYPSDIAVEWESNGQPENNYKTTPPVLDSDGSFFLVSKLTVDKSRWQQGNVFSCSVMHEALHNHYTQKSLSLSPGK
heavy 2: not shown
light 2: QTVVTQEPSFSVSPGGTVTLTCRSSTGAVTTSNYANWVQQTPGQAPRGLIGGTNKRAPGVPARFSGSILGNKAALTITGAQADDEAEYFCALWYSNLWVFGGGTKLTVLASTKGPSVFPLAPSSKSTSGGTAALGCLVKDYFPEPVTVSWNSGALTSGVHTFPAVLQSSGLYSLSSVVTVPSSSLGTQTYICNVNHKPSNTKVDKKVEPKSC
notes: S15B1 arm and humanized SP34 anti-CD3 arm; also called anti-Siglec-15/CD3 bispecific antibody, Format-1: KIH & CrossmAb
Broadly, the EC50 (read off the curve) is the concentration that produces a half-maximal response. One may read the Kd as the concentration at which binding is half-saturated. A word on the koff: it is the rate constant with which the complex falls apart. As a reminder, the kon is the rate constant with which the complex forms. For B1, the half-maximal effective concentration (EC50 (read off the curve)) with CD3 on Jurkat cells was roughly 4 nM. In [1], the dissociation constant (Kd) turned out to be 0.0865 nM, the koff was found to be 0.00025 s⁻¹ and the kon was determined as 2.89e+06 M⁻¹ s⁻¹. Also, in the assay with recombinant CD3, the Kd worked out at 115 nM, the dissociation rate constant (koff) came out at 0.011 s⁻¹ and the kon turned out to be 95800 M⁻¹ s⁻¹.

B2: ZLA-1214-H05 (antibody, V domains shown)
VH: QVQLVQSGAEVKKPGASVKVSCKASGYTFTSYGISWVRQAPGQGLEWMGWISAYNGNTNYAQKLQGRVTMTTDTSTSTAYMELRSLRSDDTAVYYCARMSGYYGMDVWGQGTLVTVSS
VL: DIQLTQSPSSLSASVGDRVTITCQASQGISNYLNWYQQKPGKAPKLLIYDASNLETGVPSRFSGSGSGTDFTFTISSLQPEDIATYYCQQYDNLPLTFGGGTKLEIK
notes: Fully human, from phage display
As a reminder, the EC50 is the concentration that produces a half-maximal response. Take B2: the binding result in assay [2] is “no binding”. Further, the values for the 50% effective concentration (EC50) in assay [3] and in [4] were 0.561 µg/mL and 0.593 µg/mL, respectively.

B3: S15B1 (antibody, V domains shown)
VH: QVQLQQSGPELVKPGASVKISCKASGYAFSSSWMNWVKQRPGKGLEWIGRIYPGHGETNYNGKFKDKATVTADKSSSTTYMQLSSLTSEDSAVYFCARVDNSDPYYFDYWGQGTTLTVSS
VL: DIVLTQSPASLAVSLGQRATISCRASKSVSTSGYSYMHWYQQKPGQPPKLLIYLASNLESGVPARFSGSGSGTDFTLNIHPVEEEDAATYYCQHGRELPFTFGSGTKLEIK
notes: Mouse hybridoma monoclonal antibody ('parental mouse S15B1'); also called clone S15B1; S15B1-VH + VL (Parental)
In the case of B3, the Kd in [5] turned out to be 0.0522 nM; in [1], 0.0497 nM. For the same molecule, the dissociation rate constant (koff) in assay [5] came out at 0.000233 s⁻¹; in assay [1] it was 0.000154 s⁻¹. The figures for the on-rate constant (kon) in assay [5] and in assay [1] were 4.46e+06 M⁻¹ s⁻¹ and 3.11e+06 M⁻¹ s⁻¹, respectively. Further, the “fold increase in antibody-positive cells” value in assay [6] is roughly 4 fold. Besides, the “EC50 (read off the curve)” value in assay [7] is roughly 0.5 nM; in [8] it was roughly 0.6 nM; in [9] it was roughly 0.2 µg/mL.

B4: S15B1-Exatecan ADC (other)
VH: B3 VH
VL: B3 VL
modifications: MC-GGFG-Exatecan payload linker conjugated to the antibody; residue not stated
notes: Antibody-drug conjugate; also called S15B1-based antibody-drug conjugate with Exatecan
As for B4, the concentration giving a half-maximal response (EC50 (read off the curve)) in assay [10] is roughly 6 nM.

B5: S15B1-MMAE ADC (other)
VH: B3 VH
VL: B3 VL
modifications: vc-MMAE payload linker conjugated to the antibody; residue not stated
notes: Antibody-drug conjugate; also called S15B1-based antibody-drug conjugate with MMAE
As for B5, in [11], the “EC50 (read off the curve)” value was roughly 8 nM.

B6: ZLA-1243-E01-MMAE (other)
VH: QVQLVQSGGGLVQPGRSLRLSCAASGFTFDDYAMHWVRQAPGKGLEWVSGISWNSGSIGYADSVKGRFTISRDNAKNSLYLQMNSLRAEDTALYYCAKGLWPSYDLDAFDIWGQGTMVTVSS
VL: QSALTQPASVSGSPGQSITLSCTGTSSDVGAYNFVSWYQQHPGTAPKLMIYEVSNRPSGVSDRFSGSKSGNTASLTISGLQAEDEADYYCSSYTSTIPPFVFGTGTKVTVL
modifications: vc-MMAE payload linker conjugated to the antibody; residue not stated
Consider B6, for which the “EC50 (read off the curve)” value in [12] is roughly 3 nM.

For the origin of these results see US20250361297A1 (ADAPTAM THERAPEUTICS S L, published 2025).
